According to patent publication USRE39057:

Tests used:
[1] = biological target: CXCR4 (Fusin), human (human) (UniProt P61073); assay: FACS, 10 µg/ml 12G5, Daudi cells chronically infected by HIV-2/vcp; loss of surface Fusin or blocking of the epitope not told apart
[2] = biological target: CXCR4 (Fusin), human (human) (UniProt P61073); assay: flow cytometry, PBMC cultured 5 days, average of 10 batches
[3] = biological target: CXCR4 (Fusin), human (human) (UniProt P61073); assay: flow cytometry, MT-2 cells
[4] = biological target: CXCR4 (Fusin), human (human) (UniProt P61073); assay: Scatchard analysis of 125I-12G5 binding; RD cells
[5] = biological target: CXCR4 (Fusin), human (human) (UniProt P61073); assay: flow cytometry, MOLT-4 cells
[6] = biological target: CXCR4 (Fusin), human (human) (UniProt P61073); assay: flow cytometry, RD/CD4 cells
[7] = biological target: HA-tagged CXCR4 (HA-tagged Fusin) on CHO-K1 cells (influenza; human) (UniProt P61073); assay: Scatchard analysis of 125I-12G5 surface binding at 4 C; CHO cells expressing HA-tagged Fusin
[8] = biological target: CXCR4 (Fusin), human (human) (UniProt P61073); assay: FACS, 10 µg/ml 12G5, Sup-T1 cells infected by HIV-2/vcp
[9] = biological target: CXCR4 (Fusin), human (human) (UniProt P61073); assay: cell-based or functional assay
[10] = biological target: CXCR4 (Fusin), human (human) (UniProt P61073); assay: flow cytometry, macrophages cultured 5 days, average of 3 batches
[11] = biological target: CXCR4 (Fusin), human (human) (UniProt P61073); assay: flow cytometry, Sup T1 cells
[12] = biological target: CXCR4 (Fusin), human (human) (UniProt P61073); assay: FACS, 10 µg/ml 12G5, BC7 cells chronically infected by HIV-2/vcp; loss of surface Fusin or blocking of the epitope not told apart
[13] = biological target: CXCR4 (Fusin), human (human) (UniProt P61073); assay: FACS, 10 µg/ml 12G5, Nalm6 cells chronically infected by HIV-2/vcp; loss of surface Fusin or blocking of the epitope not told apart
[14] = biological target: CXCR4 (Fusin), human (human) (UniProt P61073); assay: Scatchard analysis of 125I-12G5 surface binding at 4 C; RD or BC7 cells (endogenous CXCR4)
[15] = biological target: CXCR4 (Fusin), human (human) (UniProt P61073); assay: flow cytometry, H9 cells
[16] = biological target: HA-tagged CXCR4 (HA-tagged Fusin) on CHO-K1 cells (influenza; human) (UniProt P61073); assay: Scatchard analysis of 125I-12G5 binding; CHO cells expressing HA-tagged Fusin
[17] = biological target: CXCR4 (Fusin), human (human) (UniProt P61073); assay: flow cytometry, Daudi/CD4 cells
[18] = biological target: CXCR4 (Fusin), human (human) (UniProt P61073); assay: flow cytometry, C8166 cells
[19] = biological target: CXCR4 (Fusin), human (human) (UniProt P61073); assay: Scatchard analysis of 125I-12G5 binding; BC7 cells
[20] = biological target: CXCR4 (Fusin), human (human) (UniProt P61073); assay: flow cytometry, HeLa/CD4 cells

## MAb 12G5 (antibody)
[1]
  percent reduction of 12G5 binding on HIV-2/vcp-infected against uninfected cells: 79%
[2]
  percentage of cells expressing CXCR4 by 12G5 staining: 27.8%
[3]
  percentage of cells expressing CXCR4 by 12G5 staining: 99%
[4]
  antibody molecules bound per cell (antibody molecules per cell): 400000
[5]
  percentage of cells expressing CXCR4 by 12G5 staining: 89.5%
[6]
  percentage of cells expressing CXCR4 by 12G5 staining: 93.3%
[7]
  Kd: 1 to 5 nM
[8]
  percent reduction of 12G5 binding on HIV-2/vcp-infected against uninfected cells: 75%
[9]
  antibody concentration required to inhibit HIV-2/vcp infection of CD4-negative BC7, Nalm6 and Daudi cells (RT activity): 5 to 20 µg/mL
  antibody concentration that inhibited CP-MAC infection of Sup-T1 cells (RT activity): 1 µg/mL
[10]
  percentage of cells expressing CXCR4 by 12G5 staining: 5.2%
[11]
  percentage of cells expressing CXCR4 by 12G5 staining: 81.5%
[12]
  percent reduction of 12G5 binding on HIV-2/vcp-infected against uninfected cells: 98%
[13]
  percent reduction of 12G5 binding on HIV-2/vcp-infected against uninfected cells: 87%
[14]
  Kd: 1 to 5 nM
[15]
  percentage of cells expressing CXCR4 by 12G5 staining: 51.4%
[16]
  antibody molecules bound per cell (antibody molecules per cell): 1e+06
[17]
  percentage of cells expressing CXCR4 by 12G5 staining: 88.4%
[18]
  percentage of cells expressing CXCR4 by 12G5 staining: 72%
[19]
  antibody molecules bound per cell (antibody molecules per cell): 50000
[20]
  percentage of cells expressing CXCR4 by 12G5 staining: 35.5%
